Experimental data published in the supplement of paper PMC7877785.
± gives the uncertainty stated by the source.

Test: self-splicing fitness, log relative to wild type (ln ratio); higher = more splicing; Tetrahymena group I intron in knt gene, E. coli kanamycin selection, DiMSum; sequences stand for … in CUCUCU…GGAGGGAAAAGUUAUCAGGCAUGCACCUGGUAGCUAGUCUUUAAACCAAUAGAUUGCAUCGGUUUAAAAGGCAAGACCGUCAAAUUGCGGGAAAGGGGUCAACAGCCGUUCAGUACCAAGUCUCAGGGGAAACUUUGAGAUGGCCUUGCAAAGGGUAUGGUAAUAAGCUGACGGACAUGGUCCUAACCACGCAGCCAAGUCCUAAGUCAACAGAUCUUCUGUUGAUAUGGAUGCAGUUCACAGACUAAAUGUCGGUCGGGGAAGAUGUAUUCUUCUCAUAAGAUAUAGUCGGACCUCUCCUUAAUGGGAGCUAGCGGAUGAAGUGAUGCAACACUGGAGCCGCUGGGAACUAAUUUGUAUGCGAAAGUAUAUUGAUUAGUUUUGGAGUACUCGUGGUCG
In short: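 A randomised library covering all eight P1ex-region intron nucleotides was built with the intron in the knt kanamycin-resistance gene on pET-22b(+) and held in E. coli BL21(DE3). Cells were grown overnight at 37°C or 30°C on LB agar, with or without 25 μg/mL kanamycin, plus 100 μg/mL carbenicillin, 50 μM IPTG and 0.2% rhamnose, and pooled colonies were amplicon-sequenced on an Illumina HiSeq 2500. DiMSum fitness is the error-weighted combination of wild-type-normalised replicate fold changes, kanamycin versus none.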

| Sequence | self-splicing fitness (ln) (30 °C) | self-splicing fitness (ln) (37 °C) |
| --- | --- | --- |
| AAGGAGCAAUAUUACGGAUG | -3.8 ± 0.21 | -3.29 ± 0.35 |
| AAGGAGCAAUAUUACGGCCC | -2.25 ± 0.26 | -1.37 ± 0.34 |
| AAGGAGCAAUAUUACGGGAC | -2.34 ± 0.23 | -2.36 ± 0.41 |
| AAGGAGCAAUAUUACGGUCC | -2.13 ± 0.18 | -2.03 ± 0.27 |
| AAGGAGCAAUAUUACGUAAU | -3.8 ± 0.16 | -2.27 ± 0.15 |
| AAGGAGCAAUAUUACGUCUA | -0.839 ± 0.24 | -0.933 ± 0.27 |
| AAGGAGCAAUAUUACGUGGC | -3.79 ± 0.19 | -2.37 ± 0.2 |
| AAGUAGCAAUAUUACGAGCG | -0.709 ± 0.14 | -1.11 ± 0.19 |
| AAGUAGCAAUAUUACGAUAG | -2.72 ± 0.16 | -2.64 ± 0.36 |
| AAGUAGCAAUAUUACGAUCG | -1.43 ± 0.1 | -0.453 ± 0.15 |
| AAGUAGCAAUAUUACGCAUC | -3.84 ± 0.47 | -1.08 ± 0.23 |
| AAGUAGCAAUAUUACGCCAG | -2.64 ± 0.21 | -0.996 ± 0.24 |
| AAGUAGCAAUAUUACGCUAG | -1.57 ± 0.17 | -1.04 ± 0.2 |
| AAGUAGCAAUAUUACGCUGC | – | -0.747 ± 0.19 |
| AAGUAGCAAUAUUACGGAAU | -3.66 ± 0.2 | -1.52 ± 0.16 |
| AAGUAGCAAUAUUACGGAUC | -1.17 ± 0.083 | -0.819 ± 0.12 |
| AAGUAGCAAUAUUACGGCCG | -1.34 ± 0.12 | -0.293 ± 0.18 |
| AAGUAGCAAUAUUACGGCUA | -1.01 ± 0.085 | -0.475 ± 0.095 |
| AAGUAGCAAUAUUACGGCUC | -0.15 ± 0.12 | 0.32 ± 0.15 |

| Sequence | self-splicing fitness (ln) (30 °C) | self-splicing fitness (ln) (37 °C) |
| --- | --- | --- |
| AAGUAGCAAUAUUACGGUAA | -1.12 ± 0.17 | -0.903 ± 0.13 |
| AAGUAGCAAUAUUACGUAAA | -1.09 ± 0.095 | -0.434 ± 0.14 |
| AAGUAGCAAUAUUACGUAAG | -2.48 ± 0.13 | -1.43 ± 0.14 |
| AAGUAGCAAUAUUACGUACC | -0.997 ± 0.16 | -0.0515 ± 0.15 |
| AAGUAGCAAUAUUACGUACG | -1.29 ± 0.088 | -0.0022 ± 0.11 |
| AAGUAGCAAUAUUACGUCUA | -0.618 ± 0.09 | 0.263 ± 0.1 |
| AAGUAGCAAUAUUACGUGCG | -1.48 ± 0.12 | -0.495 ± 0.15 |
| AAGUAGCAAUAUUACGUGUG | -2.07 ± 0.099 | -1.15 ± 0.094 |
| AAUAAGCAAUAUUACGAAAG | -3.68 ± 0.27 | -1.37 ± 0.22 |
| AAUAAGCAAUAUUACGAACC | -1.33 ± 0.15 | -0.414 ± 0.18 |
| AAUAAGCAAUAUUACGAAGA | -1.52 ± 0.26 | -1.92 ± 0.32 |
| AAUAAGCAAUAUUACGAAUC | -2.45 ± 0.21 | -0.866 ± 0.23 |
| AAUAAGCAAUAUUACGACGC | -0.19 ± 0.093 | 0.0933 ± 0.12 |
| AAUAAGCAAUAUUACGACGG | -2.35 ± 0.15 | -1.34 ± 0.19 |
| AAUAAGCAAUAUUACGACUA | -0.696 ± 0.12 | -0.486 ± 0.093 |
| AAUAAGCAAUAUUACGAGCG | -1.5 ± 0.15 | -0.155 ± 0.17 |
| AAUAAGCAAUAUUACGAUCG | -1 ± 0.081 | -0.0681 ± 0.096 |
| AAUAAGCAAUAUUACGCACC | -0.414 ± 0.13 | 0.346 ± 0.13 |
| AAUAAGCAAUAUUACGCAGG | -1.85 ± 0.14 | -2.12 ± 0.15 |
